In patent US20220073631A1 (QYUNS THERAPEUTICS, published 2022) one finds Kd, koff and kon data, which are given here for one molecule.

Common to all, as to assay: SPR, Biacore T200, by the methods of Example 2
In one assay the target is T1, hIL-4Rα-Mu242 (human, UniProt P24394 26-232).
T1 construct: Printed positions fit the mature protein; also called V68R/V69F/S70Q; not shown: C-terminal his-tag
T1 chain: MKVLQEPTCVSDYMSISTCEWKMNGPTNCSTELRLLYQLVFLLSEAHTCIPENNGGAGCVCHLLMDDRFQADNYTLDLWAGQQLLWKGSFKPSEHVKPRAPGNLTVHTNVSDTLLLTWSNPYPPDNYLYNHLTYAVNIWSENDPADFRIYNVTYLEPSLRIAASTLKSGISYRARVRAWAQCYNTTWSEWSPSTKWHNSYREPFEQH
As to the method: (§1) The protein A was chemically coupled to a CM5 chip, and an appropriate amount of the antibody was immobilized by a capture method such that the Rmax was less than 50 RU and the flow rate for the capture was 10 μl/min. The antigen was subject to gradient dilution, and the flow rate in the instrument was switched to 30 μl/min. The antigen was flowed through the reference channel and the channel with the immobilized antibody sequentially in an ascending order of concentration, and the running buffer was flowed through as a negative control. After each binding and dissociation was complete, the chip was regenerated with glycine, pH 1.5. Fitting was performed with the build-in software in the instrument according to a 1:1 binding model. The binding rate constant kₐ, the dissociation rate constant kd, and the equilibrium dissociation constant KD values of the antibody were calculated. Dupilumab was obtained by purchasing a commercially available medicine.
(§2) To further narrow down the key amino acids that PD2-31 binds to, multiple mutants of hIL-4Rα were designed in Loop 2 (V40FLLSEA46) and Loop 3 (M65[…]73) (Table 2). The wild-type hIL-4Rα (hIL-4Rα-ECD) and hIL-4Rα mutants were prepared using standard techniques. Briefly, the expression plasmids containing the extracellular domain of wild-type hIL-4Rα and different mutated hIL-4Rα were constructed and transfected into HEK 293F cells. After expression, the extracellular domain of wild-type hIL-4Rα and hIL-4Rα mutants with C-terminus his-tag were purified by Nickel chromatography. Purified proteins of wild-type hIL-4Rα and hIL-4Rα mutants were analyzed for interaction with PD2-31 and Dupilumab. The interaction was studied by Biacore T200, according to the methods in Example 2.

In another assay the target is T2, hIL-4Rα-Mu240 (human, UniProt P24394 26-232).
T2 construct: Printed positions fit the mature protein; also called D66A/D67A/V68R; not shown: C-terminal his-tag
T2 chain: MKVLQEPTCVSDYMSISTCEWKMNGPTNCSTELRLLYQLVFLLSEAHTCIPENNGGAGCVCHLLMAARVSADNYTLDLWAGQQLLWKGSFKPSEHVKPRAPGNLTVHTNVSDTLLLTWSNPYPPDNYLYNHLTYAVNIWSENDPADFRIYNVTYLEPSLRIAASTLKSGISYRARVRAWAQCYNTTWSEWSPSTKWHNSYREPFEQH
As to the method:
as §1, §2

For a further assay, the target named is T3, hIL-4Rα-Mu243 (human, UniProt P24394 26-232).
T3 construct: Printed positions fit the mature protein; also called V69F/S70Q/A71L; not shown: C-terminal his-tag
T3 chain: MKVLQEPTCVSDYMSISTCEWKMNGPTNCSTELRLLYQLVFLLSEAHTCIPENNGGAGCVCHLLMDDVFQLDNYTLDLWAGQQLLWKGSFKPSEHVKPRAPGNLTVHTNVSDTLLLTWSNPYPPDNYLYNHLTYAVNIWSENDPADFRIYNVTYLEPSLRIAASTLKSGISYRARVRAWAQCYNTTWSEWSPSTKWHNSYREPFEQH
As to the method: as §1, §2

A further assay concerns the target T4, hIL-4Rα-Mu239 (human, UniProt P24394 26-232).
T4 construct: Printed positions fit the mature protein; also called M65I/D66A/D67A; not shown: C-terminal his-tag
T4 chain: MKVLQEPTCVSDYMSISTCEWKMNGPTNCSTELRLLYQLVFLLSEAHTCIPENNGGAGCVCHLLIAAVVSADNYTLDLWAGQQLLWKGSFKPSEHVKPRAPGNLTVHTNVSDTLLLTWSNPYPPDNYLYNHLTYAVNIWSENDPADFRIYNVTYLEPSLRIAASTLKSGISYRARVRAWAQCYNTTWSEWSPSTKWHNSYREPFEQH
As to the method: as §1, §2

The target of another assay is T5, hIL-4Rα-Mu453 (human, UniProt P24394 26-232).
T5 construct: Printed positions fit the mature protein; also called D66A/D67A; not shown: C-terminal his-tag
As to the method:
as §1, §2

In the next assay the target is T6, hIL-4Rα-Mu241 (human, UniProt P24394 26-232).
T6 construct: Printed positions fit the mature protein; also called D67A/V68R/V69F; not shown: C-terminal his-tag
T6 chain: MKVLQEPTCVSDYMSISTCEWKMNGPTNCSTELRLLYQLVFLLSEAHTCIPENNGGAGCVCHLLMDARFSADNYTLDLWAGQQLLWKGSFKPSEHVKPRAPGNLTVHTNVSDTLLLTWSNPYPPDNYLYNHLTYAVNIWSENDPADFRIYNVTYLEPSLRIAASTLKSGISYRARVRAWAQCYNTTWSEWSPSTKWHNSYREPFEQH
As to the method:
as §1, §2

A further assay has as its target T7, hIL-4Rα-Mu245 (human, UniProt P24394 26-232).
T7 construct: Printed positions fit the mature protein; also called A71L/D72R/N73A; not shown: C-terminal his-tag
T7 chain: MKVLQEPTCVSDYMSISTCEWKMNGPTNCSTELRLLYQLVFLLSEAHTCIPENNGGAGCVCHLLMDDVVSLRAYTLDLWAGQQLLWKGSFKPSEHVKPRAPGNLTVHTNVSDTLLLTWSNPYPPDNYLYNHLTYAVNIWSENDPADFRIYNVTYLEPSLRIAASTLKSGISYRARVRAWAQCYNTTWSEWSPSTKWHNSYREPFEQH
As to the method: as §1, §2

B1: QX005N (PD2-31) (antibody, V domains shown)
VH: EVQLVESGGGLVQPGGSLRLSCAASGIDLRTNSMSWVRQAPGKGLEWVGIIGSSGYMDYASWAKGRFTISRDNSKNTLYLQMNSLRAEDTAVYYCARHGDSSSFALWGQGTLVTVSS
VL: DIQMTQSPSSLSASVGDRVTITCRASESVYKNNRLSWYQQKPGKAPKLLIYEASKVASGVPSRFSGSGSGTDFTLTISSLQPEDFATYYCAGAYRGNIYPFGQGTKVEIK
notes: Humanized from rabbit clone #2, expressed as a full antibody in ExpiCHO-S cells (heavy chain 48.5 kDa, light chain 23.7 kDa)
On to B1, for which the Kd (as a rule, the free concentration of one partner at which half of the binding sites on the other are occupied at equilibrium, for simple one-to-one binding) with hIL-4Rα-Mu242 turned out to be 0.979 nM; with hIL-4Rα-Mu240, 0.75 nM; with hIL-4Rα-Mu243, 0.131 nM; in the assay with hIL-4Rα-Mu239 it was 0.163 nM; in the assay with hIL-4Rα-Mu453 it was 0.663 nM; with hIL-4Rα-Mu241, 0.474 nM. For the same molecule, the dissociation constant Kd in the assay with hIL-4Rα-Mu245 was 1.45 nM. The off-rate (koff) (in general, the first-order rate constant of dissociation) turned out to be 0.000138 s⁻¹ with hIL-4Rα-Mu242; 5.23e-05 s⁻¹ with hIL-4Rα-Mu240; 9.45e-05 s⁻¹ in the assay with hIL-4Rα-Mu243; 2.71e-05 s⁻¹ in the assay with hIL-4Rα-Mu239; 0.000118 s⁻¹ with hIL-4Rα-Mu453; 6.59e-05 s⁻¹ in the assay with hIL-4Rα-Mu241. This molecule also gave a dissociation rate constant (koff) with hIL-4Rα-Mu245 of 0.00029 s⁻¹. For the same molecule, the kon – broadly, a measure of how fast the partners come together – with hIL-4Rα-Mu242 was 141000 M⁻¹ s⁻¹; with hIL-4Rα-Mu240 it was 69800 M⁻¹ s⁻¹; with hIL-4Rα-Mu243, 723000 M⁻¹ s⁻¹; with hIL-4Rα-Mu239, 166000 M⁻¹ s⁻¹; with hIL-4Rα-Mu453 it was 178000 M⁻¹ s⁻¹; in the assay with hIL-4Rα-Mu241, 139000 M⁻¹ s⁻¹. Also, the kon with hIL-4Rα-Mu245 stood at 201000 M⁻¹ s⁻¹.
